Target: transcobalamin saturated with vitamin B12 (holoTC) (human (endogenous in serum)) (UniProt P20062)
Experiment: co-IP; serum samples of 6 pregnant women (weeks 15, 25 and 35) exposed to anti-TC coated magnetic beads; sCD320 measured by in-house sandwich ELISA before and after the precipitation

Sequence of UniProt P20062 (P20062 19-427): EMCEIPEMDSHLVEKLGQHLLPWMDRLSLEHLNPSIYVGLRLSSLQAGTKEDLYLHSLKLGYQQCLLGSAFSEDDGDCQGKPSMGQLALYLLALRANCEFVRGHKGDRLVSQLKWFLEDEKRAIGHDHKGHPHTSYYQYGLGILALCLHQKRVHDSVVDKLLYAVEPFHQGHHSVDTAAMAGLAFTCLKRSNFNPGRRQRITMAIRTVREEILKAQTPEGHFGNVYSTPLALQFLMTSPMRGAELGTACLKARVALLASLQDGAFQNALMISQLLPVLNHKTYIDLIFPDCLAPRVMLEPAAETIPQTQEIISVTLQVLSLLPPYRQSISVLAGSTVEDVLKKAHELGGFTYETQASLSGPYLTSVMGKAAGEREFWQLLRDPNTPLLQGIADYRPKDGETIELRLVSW

percent of sCD320 removed by precipitation with antibodies against TC (week 15, median): 36%
percent of sCD320 removed by precipitation with antibodies against TC (week 25, median): 36%
percent of sCD320 removed by precipitation with antibodies against TC (week 35, median): 40%
stoichiometry N: 1
Substance: soluble CD320 (sCD320), soluble receptor for transcobalamin-vitamin B12 (from UniProt Q9NPF0 36-229)

— article PMC3754917
